Assay results published in publication PMC7940618, “Specific inhibition of the Survivin–CRM1 interaction by peptide-modified molecular tweezers” (Nature Communications, 2021).
Peptide text beside a SMILES is read from it. * marks the point of attachment. X1 = O=C(Cn1cc(CCOP(=O)(O)Oc2c3c(c(OP(=O)(O)O)c4c2C2CC4c4cc5c(cc42)C2CC5c4ccccc42)C2CC3c3cc4c(cc32)C2CC4c3ccccc32)nn1)*; 5FAM = O=C1OC2(c3ccc(O)cc3Oc3cc(O)ccc32)c2ccc(C(=O)*)cc21

Key:
[1] = target: T1, Survivin120 wildtype (Homo sapiens, UniProt O15392); test: Fluorescence anisotropy binding of FAM-labeled tweezers to Survivin120 wildtype
T1 construct: the only published NMR structure originated from a truncated Survivin (aa 1-120) with improved solubility; GST with PreScission site (N); made in house; host or cells: Escherichia coli soluBL21
T1 sequence (O15392 1-120): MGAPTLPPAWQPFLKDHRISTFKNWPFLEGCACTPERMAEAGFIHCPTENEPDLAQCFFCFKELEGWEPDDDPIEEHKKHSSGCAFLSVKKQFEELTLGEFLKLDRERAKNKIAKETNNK
Protocol: (§1) Fluorescence anisotropy was measured with a Jasco Spectrofluorometer FP-8300 in PBS buffer, pH 7.4, at 25 °C and data were collected with the software Spectra Manager™.
(§2) For binding studies, FAM-labeled molecular tweezers (200 nM) were titrated with Survivin120 wildtype or K90/103T mutant until a final concentration of 180 µM (wildtype) or 350 µM (K90/103T) was reached. Data were normalized to the measured anisotropy A0 in the absence of protein. Using a single-site binding model, the fluorescence anisotropy data were fitted to the equation:3 y=A⋅L+x+KD−L+x+KD^2−4⋅x⋅L/2⋅L where A is the anisotropy at saturation, L is the concentration of the fluorescent ligand, x is the concentration of protein titrated, and KD is the dissociation constant.

[2] = target: T2, Survivin120 K90/103T (Homo sapiens, UniProt O15392, K103T/K90T); test: Fluorescence anisotropy binding of FAM-labeled tweezers to Survivin120 K90/103T
T2 construct: the only published NMR structure originated from a truncated Survivin (aa 1-120) with improved solubility; GST with PreScission site (N); made in house; host or cells: Escherichia coli soluBL21
T2 sequence (O15392 1-120 K90T/K103T): as the sequence (O15392 1-120) above, with K90T, K103T counted along it
Protocol: as §1, §2

[3] = target: TW-ELTL (asymmetrical molecular tweezer linked to the short peptide ELTL) (human); test: ITC; tweezer conjugate (100 µM) in the cell, Survivin120 (1.2 mM WT or 2.5 mM K90/103T) in the syringe; PBS pH 7.4, 25 °C; one set of sites model
[4] = target: TW-ELTLGEFL (asymmetrical molecular tweezer linked to the elongated peptide ELTLGEFL) (human); test: as above
[5] = target: TW-LFEEGLLT (scrambled peptide-modified tweezer); test: as above
[6] = target: TW-ELTL-FAM (human); test: fluorescence polarisation; fluorescence anisotropy; 200 nM FAM-labeled tweezer titrated with Survivin120 (to 180 µM) or K90/103T (to 350 µM); PBS pH 7.4, 25 °C; single-site model
[7] = target: TW-ELTLGEFL-FAM (human); test: as above
[8] = target: Survivin142-HA (human) (UniProt O15392); test: pull-down; competition in the pull-down of a5: 293T lysate with Survivin142-HA preincubated 1 h with 10 nM to 200 µM tweezer conjugate before GST-CRM1, RanQ69L and dGTP
Chain of Survivin142-HA (human) (O15392 whole entry): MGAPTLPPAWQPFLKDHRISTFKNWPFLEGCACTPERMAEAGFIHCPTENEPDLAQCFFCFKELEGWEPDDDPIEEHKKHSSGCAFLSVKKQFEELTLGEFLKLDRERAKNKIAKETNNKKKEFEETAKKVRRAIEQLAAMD

[9] = target: Atto488-labeled Survivin120 (human) (UniProt O15392); test: fluorescence polarisation; fluorescence anisotropy competition; Atto488-Survivin120 preincubated with CRM1_1-1062VLV430AAA at 1:5, titrated with tweezers to approx. 180 µM; PBS pH 7.4, 25 °C; n = 1
Chain of Atto488-labeled Survivin120 (human) (O15392 1-120): as the sequence (O15392 1-120) above

**Q.** CC(C)C[C@H](NC(=O)[C@H](CCC(=O)O)NC(=O)Cn1cc(CCOP(=O)(O)Oc2c3c(c(OP(=O)(O)O)c4c2[C@H]2C[C@@H]4c4cc5c(cc42)[C@H]2C[C@@H]5c4ccccc42)[C@H]2C[C@@H]3c3cc4c(cc32)[C@H]2C[C@@H]4c3ccccc32)nn1)C(=O)N[C@H](C(=O)N[C@@H](CC(C)C)C(=O)N[C@@H](CCCCNC(=O)c1ccc2c(c1)C(=O)OC21c2ccc(O)cc2Oc2cc(O)ccc21)C(=O)NCC(=O)O)[C@@H](C)O [TW-ELTL-FAM] was tested. Which Kd [1] did it give?
**A.** The Kd was 26 ± 2 µM.

**Q.** What about the Kd [2] of the same molecule?
**A.** Its Kd is 240 ± 20 µM.

**Q.** For CC(C)C[C@H](NC(=O)[C@H](Cc1ccccc1)NC(=O)[C@H](CCC(=O)O)NC(=O)CNC(=O)[C@H](CC(C)C)NC(=O)[C@@H](NC(=O)[C@H](CC(C)C)NC(=O)[C@H](CCC(=O)O)NC(=O)Cn1cc(CCOP(=O)(O)Oc2c3c(c(OP(=O)(O)O)c4c2C2CC4c4cc5c(cc42)C2CC5c4ccccc42)C2CC3c3cc4c(cc32)C2CC4c3ccccc32)nn1)[C@@H](C)O)C(=O)N[C@@H](CCCCNC(=O)c1ccc2c(c1)C(=O)OC21c2ccc(O)cc2Oc2cc(O)ccc21)C(=O)NCC(=O)O [TW-ELTLGEFL-FAM] (X1-ELTLGEFLK(5FAM)G-OH), which Kd [1] is on record?
**A.** Its Kd is 5 ± 0.5 µM.

**Q.** What about the Kd [2] of the same molecule?
**A.** The Kd was 92 ± 5 µM.

**Q.** With “Survivin120 (truncated Survivin, aa 1-120) (from UniProt O15392 1-120) (domain or fragment)” as the molecule, how does the Kd [3] read?
**A.** Its Kd is 24 µM.

**Q.** And the stoichiometry N (ligand/protein) [3]?
**A.** Its stoichiometry N (ligand/protein) is 2.

**Q.** And the Kd [4]?
**A.** Its Kd is 19 µM.

**Q.** And the stoichiometry N (ligand/protein) [4]?
**A.** Its stoichiometry N (ligand/protein) is 2.

**Q.** What about the Kd [5] of the same molecule?
**A.** The Kd was 68 µM.

**Q.** And the Kd [6]?
**A.** Its Kd is 26 µM.

**Q.** What about the Kd [7] of the same molecule?
**A.** Its Kd is 5 µM.

**Q.** Which results are given for “TW-ELTLGEFL (asymmetrical molecular tweezer linked to the elongated peptide ELTLGEFL)”?
**A.** concentration effective in disrupting the Survivin–CRM1 complex [8]: 1 to 10 µM; IC50 [9]: 12 µM
